{"source": "paper PMC8632965", "key": {"[1]": {"biological_target": "domain 1 of CD147 (human) (UniProt P35613)", "assay": "SPR; Biacore T200; CD147ECD peptides diluted in 10 mM sodium acetate pH 4.5 and immobilised on a CM5 chip; purified proteins injected as analytes at 10 µL/min; BSA signal subtracted"}, "[2]": {"biological_target": "extracellular portion of CD147 (ECD), amino acids 22–205 (human) (UniProt P35613)", "assay": "SPR; Biacore T200; CD147ECD peptides diluted in 10 mM sodium acetate pH 4.5 and immobilised on a CM5 chip; purified proteins injected as analytes at 10 µL/min; BSA signal subtracted"}}}
{"substance": "extracellular portion of CD98 (212-630 of CD98hc) (domain or fragment)", "values": [{"measurement": "Kd", "setting": "[1]", "value": 3.53, "unit": "µM"}, {"measurement": "Kd", "setting": "[2]", "value": 0.431, "unit": "µM"}]}
